# Measured values from patent US20140161803A1 (IFOM FONDAZIONE ISTITUO FIRC DI ONCOLOGIA MOLECOLARE, published 2014).
# Where a chain is given by its changes, count along the chain named. Like-named read-outs stand apart in the source and are kept apart here.
# B1: 13F6 (antibody, mouse IgG1, V domains shown)
# VH: ELVKPGASVELSCKASGYTFTSYWMNWVKQRPGRGLEWIGRIAPNSGGTQYSGKFKTKATLTVDKSSSTAYMQLSSLTSEDSAVYYCARGDYFGHFDYWGQGTTLTVS
# VL: SLSASLGGKVTITCKASQDINNYIAWYQHKPGKGPRLLIHYTSILQPGIPSRFSGSGSGRDYSFSISNLEPEDIATYYCLQCDNLLTFGAGTKLELK
# B2: BE18 (antibody, mouse IgG1, V domains shown)
# VH: ELVKPGASVKIICKASGYIFTDYNMDWVKQSHGKSLEWIGEINPNNGDTIYNQNFKGKATLTVDKSSSTAHMALRSLTSEDTAVYYCTRKGGLRAWFVYWGQGTLVTVS
# VL: MSASPGEKVTMTCRASSSVSSSYLHWYQQKSGASPKVWIYSTSNLASGVPARFSGSGSGTSYSLTISSVEAEDAATYYCQQYSGYPLTFGSGTKLEIQ
# B3: 13D11 (antibody, V domains shown)
# VH: ELMKPGASVKLSCKATGYTFTDYWIEWVKQRPGHGLEWIGEILPGRDSTDYNENFKGKATFTADTSSNTAYMQLSSLTTEDSAIYYCARDYYGHISNWYFDVWGTGTTVTVS
# VL: SLSASLGERVSLTCRASQDIGSSLNWLQQEPDGTIKRLIYATSSLDSGVPKRFSGSRSGSDYSLTISSLESVDFVVYYCLQYATSPYTFGGGTKLEIKR
# B4: AL6 (antibody, V domains shown)
# VH: ELMKPGASVKLSCKATGYSFTGYWIEWVKQRPGHGLEWIGEILPGSDRTNYNEKFKGKATFTADTSSNTAYMQLSSLTTEDSAIYYCARDDYDRGLYIMDYWGQGTSVTVS
# VL: B3 VL with S22T, K36R, D46P, S47P, V72E, V76N
# B5: 19.10 (antibody, V domains shown)
# VH: ELVKPGASVKLSCKATGYTFTVYWMEWVRQRPGHGLEWIGEILPGSGRTNYNERFKGKATFTADTSSNTAYMQLSSLTTEDSAIYYCARDYSGDTSTGYFDVWGTGTTVTVS
# VL: B3 VL with S23G, N25S, V72E, V76D
# B6: uPARmyc (receptor)
# chain: LRCMQCKTNGDCRVEECALGQDLCRTTIVRLWEEGEELELVEKSCTHSEKTNRTLSYRTGLKITSLTEVVCGLDLCNQGNSGRAVTYSRSRYLECISCGSSDMSCERGRHQSLQCRSPEEQCLDVVTHWIQEGEEGRPKDDRHLRGCGYLPGCPGSNGFHNNDTFHFLKCCNTTKCNEGPILELENLPQNGRQCYSCKGNSTHGCSSEETFLIDCRGPMNQCLVATGTHEPKNQSYMVRGCATASMCQHAHLGDAFSMNHIDVSCCTKSGCNHPGGEQKLISEEDL
# notes: monomeric control receptor; used as concentrated CHO conditioned medium without purification; also called soluble monomeric form of uPAR with a C-terminal myc-tag
# B7: ^GFDuPARmyc (receptor)
# chain: SNELHQVPSNCDCLNGGTCVSNKYFSNIHWCNCPKKFGGQHCEIDKSKGGAGAAGGLRCMQCKTNGDCRVEECALGQDLCRTTIVRLWEEGEELELVEKSCTHSEKTNRTLSYRTGLKITSLTEVVCGLDLCNQGNSGRAVTYSRSRYLECISCGSSDMSCERGRHQSLQCRSPEEQCLDVVTHWIQEGEEGRPKDDRHLRGCGYLPGCPGSNGFHNNDTFHFLKCCNTTKCNEGPILELENLPQNGRQCYSCKGNSTHGCSSEETFLIDCRGPMNQCLVATGTHEPKNQSYMVRGCATASMCQHAHLGDAFSMNHIDVSCCTKSGCNHPGGEQKLISEEDL
# notes: used as concentrated CHO conditioned medium; also called soluble GFDuPAR
# What was measured:
# wild-type human uPAR = wild-type human uPAR (human, UniProt Q03405 23-305, GPI-anchor on Gly283); experiment: cell-based or functional assay
# pro-uPA [1] = target: T1, pro-uPA (UniProt P00749 21-431, limits assumed, Eu3+-label in the cell binding competition assay); experiment: soluble receptor titrated on immobilized pro-uPA; detection 13F6 + Eu3+ anti-mouse, time-resolved fluorescence
# T1 construct: also called immobilized uPA
# Protocol: The bound material was detected by measuring time-resolved fluorescence intensity. Specific binding was calculated by subtracting the non-specific binding measured in uncoated wells incubated with identical samples. The data shown are means±SD from a representative experiment. The binding curve, equilibrium dissociation constant (Kd, in nanomolar units) and maximum binding capacity (Bmax, in CPS units (counts per second)) were calculated by non-linear regression (four-parameter fit) using the Prism 5.0 software suite.
# pro-uPA [2] = target: T1, pro-uPA; experiment: as above; remark: listed apart in the source
# Protocol: The bound material was detected by measuring time-resolved fluorescence intensity. Specific binding was calculated by subtracting the non-specific binding measured in uncoated wells incubated with identical samples. […] The binding curve and dissociation constant (Kd) were calculated by non-linear regression (four-parameter fit) using the Prism 5.0 software suite.
# ON. […] The Eu³⁺-label was detected by measuring time-resolved fluorescence intensity using an Envision Xcite plate reader (Perkin Elmer Corp.) employing the DELFIA label protocol. To calculate the specific binding, non-specific binding measured in uncoated wells, incubated with identical samples, was subtracted from the total binding measured in coated wells.
# vitronectin = target: T2, vitronectin (UniProt P04004 20-478, limits assumed); experiment: soluble receptor titrated on immobilized VN without pro-uPA; detection 13F6 + Eu3+ anti-mouse, time-resolved fluorescence
# T2 construct: also called VN; immobilized VN
# T2 sequence (P04004 20-478 limits assumed): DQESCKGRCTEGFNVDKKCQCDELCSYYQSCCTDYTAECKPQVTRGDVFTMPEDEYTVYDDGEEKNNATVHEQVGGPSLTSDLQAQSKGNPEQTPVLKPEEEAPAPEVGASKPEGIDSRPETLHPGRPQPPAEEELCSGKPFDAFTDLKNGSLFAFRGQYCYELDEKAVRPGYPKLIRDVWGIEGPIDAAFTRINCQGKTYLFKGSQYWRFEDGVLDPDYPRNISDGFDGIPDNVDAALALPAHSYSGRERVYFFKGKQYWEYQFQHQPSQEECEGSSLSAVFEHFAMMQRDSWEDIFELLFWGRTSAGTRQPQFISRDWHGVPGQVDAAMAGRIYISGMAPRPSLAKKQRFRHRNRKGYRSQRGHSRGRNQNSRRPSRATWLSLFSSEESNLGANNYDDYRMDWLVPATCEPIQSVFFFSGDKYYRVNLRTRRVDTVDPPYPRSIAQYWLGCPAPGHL
# Protocol: The data are from a single experiment and presented as means±SD. The binding curve and Kd were calculated by non-linear regression. […] The data are from a single experiment and are represented as means±SD. The binding curve and Kd were calculated by non-linear regression.
Binder,% max inhibition (pro-uPA pre-treat.) (wild-type human uPAR),% max inhibition (veh. pre-treat.) (wild-type human uPAR),Kd (pro-uPA [1]),Kd (pro-uPA [2]),Kd (vitronectin)
B1,< 20%,< 20%,,,
B2,< 20%,37%,,,
B3,82%,38%,,,
B4,< 20%,< 20%,,,
B5,79%,67%,,,
B6,,,11 nM,1.1 nM,
B7,,,,28 nM,0.62 nM
